Measurements reported in doi:10.1101/2022.12.15.520641.

Biological target: 6His-σS (His-tagged RpoS) (E. coli) (UniProt P13445)
Assay: pull-down

Chain of UniProt P13445 (P13445 whole entry): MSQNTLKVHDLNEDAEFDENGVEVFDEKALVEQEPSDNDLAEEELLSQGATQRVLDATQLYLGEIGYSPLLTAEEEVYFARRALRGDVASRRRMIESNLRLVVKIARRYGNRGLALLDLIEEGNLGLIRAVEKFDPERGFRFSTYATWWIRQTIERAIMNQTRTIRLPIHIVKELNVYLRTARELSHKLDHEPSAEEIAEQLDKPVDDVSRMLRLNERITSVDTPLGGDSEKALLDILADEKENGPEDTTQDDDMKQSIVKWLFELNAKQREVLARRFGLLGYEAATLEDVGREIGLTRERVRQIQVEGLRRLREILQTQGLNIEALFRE

fold increase in pull-down efficiency over RssB without Mg2+•beryllofluoride: 5 fold
Substance: RssB bound to Mg2+•beryllofluoride (phosphorylated-like RssB) (from UniProt P0AEV1 1-337) (natural protein)
